Test results published in publication PMC11464680, “ABIOTIC STRESS GENE 1 mediates aroma volatiles accumulation by activating MdLOX1a in apple”.

B1: p4MdLOX1a-2 (dsDNA)
DNA 1: AATTACGCAGGGATTACATCTATGTCATCTTAAAGCCAGCTAACTTTCGGGATAAACGATTTTGTAC
DNA 2: GTACAAAATCGTTTATCCCGAAAGTTAGCTGGCTTTAAGATGACATAGATGTAATCCCTGCGTAATT
B2: Mutant-M1 (dsDNA)
DNA 1: GATTACATCTATGTCATCTTAAAGCCAGCTAACTTTCGGGATAAATTACCTTATAC
DNA 2: GTATAAGGTAATTTATCCCGAAAGTTAGCTGGCTTTAAGATGACATAGATGTAATC
B3: p4MdLOX1a-2-M6 (dsDNA)
DNA 1: AATTACGCAGGGATTACATCTATGTCATCTTAAAGCCAGCTAACTTTCGGGATAA
DNA 2: TTATCCCGAAAGTTAGCTGGCTTTAAGATGACATAGATGTAATCCCTGCGTAATT

Target: T1, MdASG1-GST (Malus domestica (apple; library from …, UniProt A0A498KLW2 21-457)
T1 sequence: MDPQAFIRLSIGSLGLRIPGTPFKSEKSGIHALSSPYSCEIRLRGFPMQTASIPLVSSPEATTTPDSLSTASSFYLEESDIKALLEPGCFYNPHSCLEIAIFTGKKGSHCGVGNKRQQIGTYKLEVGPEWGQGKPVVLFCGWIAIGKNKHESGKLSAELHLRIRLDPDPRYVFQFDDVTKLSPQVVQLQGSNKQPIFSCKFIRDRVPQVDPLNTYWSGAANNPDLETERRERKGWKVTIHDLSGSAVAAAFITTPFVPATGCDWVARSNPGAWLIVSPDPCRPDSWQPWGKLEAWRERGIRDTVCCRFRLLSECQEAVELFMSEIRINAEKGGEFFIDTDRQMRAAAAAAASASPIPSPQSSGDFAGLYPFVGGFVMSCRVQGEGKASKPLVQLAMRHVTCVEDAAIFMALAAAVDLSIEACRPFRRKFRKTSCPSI
Assay: EMSA; LightShift Chemiluminescent EMSA kit binding buffer (composition, salt and pH not stated), 24 °C, 15 min
Settings: protein: recombinant; tags: GST (pGEX-4T, N-terminal); label: biotin; blunt

Row | Binder | binding result
1 | B1 | binds
2 | B2 | no binding
3 | B3 | no binding
